Measured values from PMC9035508.

Tests used:
Test in all cases: ELISA; FXIII proteins or collagen type III coated on wells at 10 µg/mL (overnight, 4°C), blocked with 0.5% BSA; GPVI-Fc2 added at varied concentrations; bound GPVI detected by 1G5/IRDye 800CW anti-mouse antibody; KD from binding curves (Figure 1B)
collagen type III = collagen type III (UniProt P02461)
[1] = biological target: Plasma FXIII (FXIIIA2B2), tetrameric, not activated (human) (UniProt P00488)
[2] = biological target: FXIII A-subunit (activated) (rh-FXIIIAa), thrombin-activated form of rh-FXIIIA2 (human) (UniProt P00488)
[3] = biological target: FXIII A-subunit (rh-FXIIIA2), recombinant, not fully activated form (human) (UniProt P00488)

Chain of UniProt P02461 (P02461 24-1221): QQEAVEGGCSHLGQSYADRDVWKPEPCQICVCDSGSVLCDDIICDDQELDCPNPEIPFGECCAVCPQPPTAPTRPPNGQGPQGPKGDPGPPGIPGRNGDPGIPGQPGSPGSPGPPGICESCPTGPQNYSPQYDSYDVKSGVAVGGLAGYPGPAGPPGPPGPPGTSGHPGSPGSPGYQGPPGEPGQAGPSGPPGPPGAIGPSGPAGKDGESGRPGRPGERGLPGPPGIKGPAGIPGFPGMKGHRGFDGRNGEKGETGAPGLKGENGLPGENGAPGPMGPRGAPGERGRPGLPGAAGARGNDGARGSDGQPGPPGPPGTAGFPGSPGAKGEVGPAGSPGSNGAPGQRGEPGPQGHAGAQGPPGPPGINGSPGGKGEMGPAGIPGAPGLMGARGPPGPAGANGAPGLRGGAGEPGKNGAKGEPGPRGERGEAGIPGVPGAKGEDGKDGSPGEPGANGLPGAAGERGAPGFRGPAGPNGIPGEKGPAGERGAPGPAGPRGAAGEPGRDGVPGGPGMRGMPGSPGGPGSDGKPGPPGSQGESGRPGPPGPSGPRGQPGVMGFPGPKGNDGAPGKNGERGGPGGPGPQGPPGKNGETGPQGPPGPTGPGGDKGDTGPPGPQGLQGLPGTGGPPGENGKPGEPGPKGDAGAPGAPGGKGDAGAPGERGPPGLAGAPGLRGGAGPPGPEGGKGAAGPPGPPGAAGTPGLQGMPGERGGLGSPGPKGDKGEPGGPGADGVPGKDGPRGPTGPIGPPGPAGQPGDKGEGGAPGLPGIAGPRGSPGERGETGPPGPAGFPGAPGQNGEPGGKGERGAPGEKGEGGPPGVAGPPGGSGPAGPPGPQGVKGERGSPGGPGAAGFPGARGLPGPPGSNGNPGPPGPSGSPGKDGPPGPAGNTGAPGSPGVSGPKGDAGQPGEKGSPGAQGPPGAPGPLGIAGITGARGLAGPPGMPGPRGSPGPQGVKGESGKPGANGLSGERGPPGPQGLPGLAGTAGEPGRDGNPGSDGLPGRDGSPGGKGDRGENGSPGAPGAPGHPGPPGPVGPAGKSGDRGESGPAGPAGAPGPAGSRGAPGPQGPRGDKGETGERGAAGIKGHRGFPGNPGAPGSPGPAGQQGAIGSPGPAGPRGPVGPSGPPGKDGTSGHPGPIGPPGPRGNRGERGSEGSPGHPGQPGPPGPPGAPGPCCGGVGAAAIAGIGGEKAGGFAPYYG

Kd (collagen type III): 183 nM
Kd [1]: 216 nM
Kd [2]: 140 nM
Kd [3]: 366 nM
Substance: GPVI-Fc2 (recombinant human GPVI extracellular domain, dimer) (from UniProt Q9HCN6 21-267) (Fc fusion)
